Measured values taken from patent US20220356230A1.

Molecular target: SARS-CoV-2 Spike Protein (RBD)(R319-F541).mmH, unmodified (SARS-CoV-2)
Assay: Luminex, supernatant on bead-coupled RBD.mmH
Conditions: remark: other sources report otherwise

B1: mAb11006 (antibody, V domains shown)
VH: EVQLVESGGGLVQPGGSLRLSCAASGFIVSRNYMSWVRQAPGKGLEWVSVIYSGGSTFYADSVKGRFTISRHNSKNTLYLQMNSLKAEDTAVYYCARELRGYFDYWGQGTLVTVSS
VL: DIQLTQSPSFLSASVGDRVTITCWASQGISSYLAWYQQKPGKAPKLLIYAASTLQSGVPSRFSGSGSGTEFTLTISSLQPEDFATYYCQLLNSYPYTFGQGTKLEIK
  Binding signal (MFI): 2040 MFI
